Reference: publication PMC3871595, “Structure Based Identification and Characterization of Flavonoids That Disrupt Human Papillomavirus-16 E6 Function” (PLoS ONE, 2013)

Molecular target: T1, GST-HPV-16 E6 (human papillomavirus type 16, UniProt P03126 1-158)
T1 construct: early protein 6 (E6) of human papillomavirus type 16; also called GST-E6; GST-16 E6; source: E. coli BL21, purified on glutathione Sepharose beads and kept on the beads
Test: filter plate bead binding assay (BAP chemiluminescence); dissociation rate experiment: GST-E6 and E6AP-BAP bound to equilibrium, unbound E6AP-BAP washed away, decrease in BAP signal at each time point
Conditions: both partners purified

T1 sequence (P03126 whole entry): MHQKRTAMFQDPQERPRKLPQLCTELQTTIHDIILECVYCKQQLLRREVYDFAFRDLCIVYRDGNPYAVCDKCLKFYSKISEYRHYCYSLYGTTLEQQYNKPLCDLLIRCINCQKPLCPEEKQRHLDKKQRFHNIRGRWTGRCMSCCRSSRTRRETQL

B1: E6AP-BAP fusion protein (E6AP residues 371-440 fused to bacterial alkaline phosphatase) (domain or fragment, UniProt Q05086 371-440, looked up)
chain: ASKCLKMVYYANVVGGEVDTNHNEEDDEEPIPESSELTLQELLGEERRNKKGPRVDPLETELGVKTLDCR
notes: also called FLAG-tagged E6AP-BAP; source: E. coli BL21, purified (anti-FLAG resin, glycine pH 2.5 elution)
With B1 the “half-life of ligand dissociation (t1/2)” value was 3.6 min.
